Experimental data as given in the RNAGym collection of RNA variant scans (doi:10.7554/elife.90254).

B1: LINE1-full (parent)
chain: UACGUAGGUGGUUUUCCCCUGAUAGUGCUAAGGGGGCCUGGAAGUUUGGACUGGGCAGAGCUCAACACAGCGUGGCAAAGUGGCUGUGGCUAGACUGCCUCUCUGGAUUCCUCGUCACUCAGCAGGGCAUCUCUGAGAGAAAUGCC

Variants of: B1
Assay: self-cleavage, relative activity (ratio to wild type); higher = more cleavage; in vitro, sequencing; the parent is a self-cleaving ribozyme

Variant	self-cleavage
UACGUAGGUGGUUUUCCCCUGAUAGUGCUAAGGGGGCCUGGAAGUUUGGACUGGGCAGAGCUCAACACAGCGUGGCUAAGUGGCUGUGGCUAGACUGCCUCUCUGGAUUCCUCGUCACUCAGCAAGGCAUCUCUGAGAGAAAUGCC [A77U G125A]	1.33
UACGUAGGUGGUUUUCCCCUGAUAGUGCUAAGGGGGCCUGGAAGUUUGGACUGGGCAGAGCUCAACACAGCGUGGCGAAGUGGCUGUGGCUAGACUGCCUCUCUGGAUUCCUCGACACUCAGCAGGGCAUCUCUGAGAGAAAUGCC [A77G U115A]	2.25
UACGUAGGUGGUUUUCCCCUGAUAGUGCUAAGGGGGCCUGGAAGUUUGGACUGGGCAGAGCUCAACACAGCGUGGCGAAGUGGCUGUGGCUAGACUGCCUCUCUGGAUUCCUCGCCACUCAGCAGGGCAUCUCUGAGAGAAAUGCC [A77G U115C]	2.05
UACGUAGGUGGUUUUCCCCUGAUAGUGCUAAGGGGGCCUGGAAGUUUGGACUGGGCAGAGCUCAACACAGCGUGGCUAAGUGGCUGUGGCUAGGCUGCCUCUCUGGAUUCCUCGUCACUCAGCAGGGCAUCUCUGAGAGAAAUGCC [A77U A94G]	0.24
UACGUAGGUGGUUUUCCCCUGAUAGUGCUAAGGGGGCCUGGAAGUUUGGACUGGGCAGAGCUCAACACAGCGUGGCGAAGUGGCUGUGGCUAGACUGCCUCUCUGGAUUCCUCGUCACUCAGCAGGGCAUCACUGAGAGAAAUGCC [A77G U132A]	2.34
UACGUAGGUGGUUUUCCCCUGAUAGUGCUAAGGGGGCCUGGAAGUUUGGACUGGGCAGAGCUCAACACAGCGUGGCUAAGUGGCUGUGGCUAGACUGCCUCUCUGGAUUCCUCGUCACUCAGCAGGGCAUCUCUGUGAGAAAUGCC [A77U A136U]	0.75
UACGUAGGUGGUUUUCCCCUGAUAGUGCUAAGGGGGCCUGGAAGUUUGGACUGGGCAGAGCUCAACACAGCGUGGCUAAGUGGCUGUGGCUAGACUGCCUCUCUGGAUUCCUCGUCACUCAGCAGGGCAUCUCUGAGUGAAAUGCC [A77U A138U]	1.27
UACGUAGGUGGUUUUCCCCUGAUAGUGCUAAGGGGGCCUGGAAGUUUGGACUGGGCAGAGCUCAACACAGCGUGGCUAAGUGGCUGUGGCUAGACUGCCUCUCUGGAUUCCUCGUCACUCAGCAGGGCAUCUCUGAGGGAAAUGCC [A77U A138G]	1.75
UACGUAGGUGGUUUUCCCCUGAUAGUGCUAAGGGGGCCUGGAAGUUUGGACUGGGCAGAGCUCAACACAGCGUGGCUAAGUGGCUGUGACUAGACUGCCUCUCUGGAUUCCUCGUCACUCAGCAGGGCAUCUCUGAGAGAAAUGCC [A77U G89A]	0.06
UACGUAGGUGGUUUUCCCCUGAUAGUGCUAAGGGGGCCUGGAAGUUUGGACUGGGCAGAGCUCAACACAGCGUGGCUAAGUGGCUGUGGCUAGACUGCCUCUCUGGAUUCCUCGUCACUCGGCAGGGCAUCUCUGAGAGAAAUGCC [A77U A121G]	1.6
UACGUAGGUGGUUUUCCCCUGAUAGUGCUAAGGGGGCCUGGAAGUUUGGACUGGGCAGAGCUCAACACAGCGUGGCUAAGUGGCUGUGGCUAGACUGCCUCUCUGGAUUUCUCGUCACUCAGCAGGGCAUCUCUGAGAGAAAUGCC [A77U C110U]	0.94
UACGUAGGUGGUUUUCCCCUGAUAGUGCUAAGGGGGCCUGGAAGUUUGGACUGGGCAGAGCUCAACACAGCGUGGCGAAGUGGCUGUGGCUAGACUGCCUCUCUGGAUUCCUCGUCACCCAGCAGGGCAUCUCUGAGAGAAAUGCC [A77G U119C]	2.81
UACGUAGGUGGUUUUCCCCUGAUAGUGCUAAGGGGGCCUGGAAGUUUGGACUGGGCAGAGCUCAACACAGCGUGGCUAAGUGGCUGUGGCUAGACUGCCUCUCUGGAUUCCUCGUCACUCAGCAGGGCUUCUCUGAGAGAAAUGCC [A77U A129U]	1.24
UACGUAGGUGGUUUUCCCCUGAUAGUGCUAAGGGGGCCUGGAAGUUUGGACUGGGCAGAGCUCAACACAGCGUGGCUAAGUGGCUGUGGCUAGACUGCCUCUCUGAAUUCCUCGUCACUCAGCAGGGCAUCUCUGAGAGAAAUGCC [A77U G106A]	1.31
UACGUAGGUGGUUUUCCCCUGAUAGUGCUAAGGGGGCCUGGAAGUUUGGACUGGGCAGAGCUCAACACAGCGUGGCUAAGUGGCUGUGGCUUGACUGCCUCUCUGGAUUCCUCGUCACUCAGCAGGGCAUCUCUGAGAGAAAUGCC [A77U A92U]	0.63
UACGUAGGUGGUUUUCCCCUGAUAGUGCUAAGGGGGCCUGGAAGUUUGGACUGGGCAGAGCUCAACACAGCGUGGCUAAGUGGCUGUGGCUGGACUGCCUCUCUGGAUUCCUCGUCACUCAGCAGGGCAUCUCUGAGAGAAAUGCC [A77U A92G]	0.05
UACGUAGGUGGUUUUCCCCUGAUAGUGCUAAGGGGGCCUGGAAGUUUGGACUGGGCAGAGCUCAACACAGCGUGGCUAAGUGGCUGUGGCUAGACUGCCUCUCUGGAUUCCUCGUCACUCAGCAGGGCAUCUCUGAGAGAAAUGCC [A77U]	1.21
UACGUAGGUGGUUUUCCCCUGAUAGUGCUAAGGGGGCCUGGAAGUUUGGACUGGGCAGAGCUCAACACAGCGUGGCGAAGUGGCUGUGGCUAGACUGCCUCUCUGGACUCCUCGUCACUCAGCAGGGCAUCUCUGAGAGAAAUGCC [A77G U108C]	2.51
UACGUAGGUGGUUUUCCCCUGAUAGUGCUAAGGGGGCCUGGAAGUUUGGACUGGGCAGAGCUCAACACAGCGUGGCGAAGUGGCUGUGGCUAGACUGCCUCUCUGGAUUCCUCGUCACUCAGCAGGGCAUCUCUGAGAUAAAUGCC [A77G G139U]	2.41
UACGUAGGUGGUUUUCCCCUGAUAGUGCUAAGGGGGCCUGGAAGUUUGGACUGGGCAGAGCUCAACACAGCGUGGCUAAGUGGCUGUGGCUAGACUGCCUCUCUGGAUUCCUCGUCACUCAACAGGGCAUCUCUGAGAGAAAUGCC [A77U G122A]	0.36

Variant	self-cleavage
UACGUAGGUGGUUUUCCCCUGAUAGUGCUAAGGGGGCCUGGAAGUUUGGACUGGGCAGAGCUCAACACAGCGUGGCUAAGUGGCUGUGGCUACACUGCCUCUCUGGAUUCCUCGUCACUCAGCAGGGCAUCUCUGAGAGAAAUGCC [A77U G93C]	0.03
UACGUAGGUGGUUUUCCCCUGAUAGUGCUAAGGGGGCCUGGAAGUUUGGACUGGGCAGAGCUCAACACAGCGUGGCUAAGUGGCUGUGGCUAUACUGCCUCUCUGGAUUCCUCGUCACUCAGCAGGGCAUCUCUGAGAGAAAUGCC [A77U G93U]	0.04
UACGUAGGUGGUUUUCCCCUGAUAGUGCUAAGGGGGCCUGGAAGUUUGGACUGGGCAGAGCUCAACACAGCGUGGCGAAGUGGCUGUGGCUAGACUGCCUCUCAGGAUUCCUCGUCACUCAGCAGGGCAUCUCUGAGAGAAAUGCC [A77G U104A]	1.64
UACGUAGGUGGUUUUCCCCUGAUAGUGCUAAGGGGGCCUGGAAGUUUGGACUGGGCAGAGCUCAACACAGCGUGGCUAGGUGGCUGUGGCUAGACUGCCUCUCUGGAUUCCUCGUCACUCAGCAGGGCAUCUCUGAGAGAAAUGCC [A77U A79G]	1.48
UACGUAGGUGGUUUUCCCCUGAUAGUGCUAAGGGGGCCUGGAAGUUUGGACUGGGCAGAGCUCAACACAGCGUGGCGAAGUGGCUGUGGCUAGACUGCCUCUCUGGAUUCCUCGUCACUCAGCAGGGCACCUCUGAGAGAAAUGCC [A77G U130C]	2.56
UACGUAGGUGGUUUUCCCCUGAUAGUGCUAAGGGGGCCUGGAAGUUUGGACUGGGCAGAGCUCAACACAGCGUGGCUAAGUGGCUGUGGCUAGACUGCCUCUCUGGAUUCCUCGUCACUCAGCAGGGCAUUUCUGAGAGAAAUGCC [A77U C131U]	1.19
UACGUAGGUGGUUUUCCCCUGAUAGUGCUAAGGGGGCCUGGAAGUUUGGACUGGGCAGAGCUCAACACAGCGUGGCUAAGUGGCUGUGGCUAGACUGCCUCUCUGGAUUCCUCGUCACUCAGCAGGGCAUCUCUGAGAGAAAUGAC [A77U C145A]	1.75
UACGUAGGUGGUUUUCCCCUGAUAGUGCUAAGGGGGCCUGGAAGUUUGGACUGGGCAGAGCUCAACACAGCGUGGCGAAGUGGCUGUGGCUAGACUGCCUCUCUGGAUUCCUCGUCACUCAGCAGGUCAUCUCUGAGAGAAAUGCC [A77G G127U]	2.58
UACGUAGGUGGUUUUCCCCUGAUAGUGCUAAGGGGGCCUGGAAGUUUGGACUGGGCAGAGCUCAACACAGCGUGGCUAAGUGGCUGUGGCUAGACUGCCUCUCUGGAUUCCUCGUCACUCAGUAGGGCAUCUCUGAGAGAAAUGCC [A77U C123U]	0.84
UACGUAGGUGGUUUUCCCCUGAUAGUGCUAAGGGGGCCUGGAAGUUUGGACUGGGCAGAGCUCAACACAGCGUGGCUAAGUGGCUGUGGCUAGACUGCCUCUCUGGAUUCCUCGUCACUCAGCCGGGCAUCUCUGAGAGAAAUGCC [A77U A124C]	1.49
UACGUAGGUGGUUUUCCCCUGAUAGUGCUAAGGGGGCCUGGAAGUUUGGACUGGGCAGAGCUCAACACAGCGUGGCUAAGUGGCUGUGGCUAGACUGCCUCUCUGGAUUCCUCGUCACUCAGCUGGGCAUCUCUGAGAGAAAUGCC [A77U A124U]	1.27
UACGUAGGUGGUUUUCCCCUGAUAGUGCUAAGGGGGCCUGGAAGUUUGGACUGGGCAGAGCUCAACACAGCGUGGCUGAGUGGCUGUGGCUAGACUGCCUCUCUGGAUUCCUCGUCACUCAGCAGGGCAUCUCUGAGAGAAAUGCC [A77U A78G]	0.68
UACGUAGGUGGUUUUCCCCUGAUAGUGCUAAGGGGGCCUGGAAGUUUGGACUGGGCAGAGCUCAACACAGCGUGGCGAAGUGGCUGUGGCUAGACUGCCUCUCUGGAUGCCUCGUCACUCAGCAGGGCAUCUCUGAGAGAAAUGCC [A77G U109G]	0
UACGUAGGUGGUUUUCCCCUGAUAGUGCUAAGGGGGCCUGGAAGUUUGGACUGGGCAGAGCUCAACACAGCGUGGCUAAGUGGCUGUGGCUAGACUGCCUCUCUGGAUUCCUCGUCACUCAGCAGGGCAUCUCUGAGAGGAAUGCC [A77U A140G]	1.37
UACGUAGGUGGUUUUCCCCUGAUAGUGCUAAGGGGGCCUGGAAGUUUGGACUGGGCAGAGCUCAACACAGCGUGGCUAAGUGGCUGUGGCUAGACUGCCUCUCUGGAUUCCUCGUCACUCAGCAGGGCAUCUCUGAGAGUAAUGCC [A77U A140U]	1.23
UACGUAGGUGGUUUUCCCCUGAUAGUGCUAAGGGGGCCUGGAAGUUUGGACUGGGCAGAGCUCAACACAGCGUGGCGAAGUGGCUGUGGCUAGACAGCCUCUCUGGAUUCCUCGUCACUCAGCAGGGCAUCUCUGAGAGAAAUGCC [A77G U96A]	0.13
UACGUAGGUGGUUUUCCCCUGAUAGUGCUAAGGGGGCCUGGAAGUUUGGACUGGGCAGAGCUCAACACAGCGUGGCUAAGUGGCUGUGGCUAGACUGCCUCUCUGGUUUCCUCGUCACUCAGCAGGGCAUCUCUGAGAGAAAUGCC [A77U A107U]	0.62
UACGUAGGUGGUUUUCCCCUGAUAGUGCUAAGGGGGCCUGGAAGUUUGGACUGGGCAGAGCUCAACACAGCGUGGCGAAGUGGCUGUGGCUAGACUGCCUCACUGGAUUCCUCGUCACUCAGCAGGGCAUCUCUGAGAGAAAUGCC [A77G U102A]	2.63
UACGUAGGUGGUUUUCCCCUGAUAGUGCUAAGGGGGCCUGGAAGUUUGGACUGGGCAGAGCUCAACACAGCGUGGCGAAGUGGCUGUGGCUAGACUGCCACUCUGGAUUCCUCGUCACUCAGCAGGGCAUCUCUGAGAGAAAUGCC [A77G U100A]	1.93
